The source of these data is article PMC3014449 (2010).

Positions of bridges follow the written chain, without caps; N, C: chain ends. Non-standard residues stand in square brackets, D forms with d. Trp(1-Me) = Cn1cc(C[C@H](N)C(=O)O)c2ccccc21; NMeI = CC[C@H](C)[C@H](NC)C(=O)O; Sar = CNCC(=O)O

In this experiment the target is C3b C3b (Homo sapiens, UniProt P01024). The experiment is described as follows: SPR. In general terms: Surface plasmon resonance follows binding to a sensor surface in real time, without labels.
Sequence of C3b C3b (P01024 566-670): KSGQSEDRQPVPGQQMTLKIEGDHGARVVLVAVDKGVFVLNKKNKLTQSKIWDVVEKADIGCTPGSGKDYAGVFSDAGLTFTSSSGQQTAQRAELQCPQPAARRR

B1: compstatin analogue 21 (peptide)
chain: Ac-ICV[Trp(1-Me)]QDW[Sar]AHRC[NMeI]-NH2
modifications: disulfide 2-12
SMILES: CC[C@H](C)[C@H](NC(C)=O)C(=O)N[C@H]1CSSC[C@@H](C(=O)N(C)[C@H](C(N)=O)[C@@H](C)CC)NC(=O)[C@H](CCCNC(=N)N)NC(=O)[C@H](Cc2c[nH]cn2)NC(=O)[C@H](C)NC(=O)CN(C)C(=O)[C@H](Cc2c[nH]c3ccccc23)NC(=O)[C@H](CC(=O)O)NC(=O)[C@H](CCC(N)=O)NC(=O)[C@H](Cc2cn(C)c3ccccc23)NC(=O)[C@H](C(C)C)NC1=O
By Kd is commonly meant the free concentration of one partner at which half of the binding sites on the other are occupied at equilibrium, for simple one-to-one binding. Low values mean higher affinity, high ones lower affinity. In the case of B1, the affinity, expressed as Kd, was 2.3 nM.
